Earlier results as cited in article PMC3204931.

Molecular target: Rac2 (Homo sapiens) (UniProt P15153)

For PLD2 (from UniProt O14939), the Kd is given as 10 nM.
